T1: human FcγRIIb extracellular domain with C-terminal His tag (human, UniProt P31994 43-217)
T1 construct: extracellular domain; also called FcgRIIb; 2b; not shown: His tag attached to the C terminus
T1 sequence (looked up): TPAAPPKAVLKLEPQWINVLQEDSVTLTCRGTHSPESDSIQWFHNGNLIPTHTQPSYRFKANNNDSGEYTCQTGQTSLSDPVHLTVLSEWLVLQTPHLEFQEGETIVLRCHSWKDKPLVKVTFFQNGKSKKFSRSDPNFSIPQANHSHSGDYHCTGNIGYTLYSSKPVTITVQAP

B1: GpH7-B3 variant S267_14T/GpL16-k0 (Ho Ab) (antibody, human IgG1, kappa)
heavy: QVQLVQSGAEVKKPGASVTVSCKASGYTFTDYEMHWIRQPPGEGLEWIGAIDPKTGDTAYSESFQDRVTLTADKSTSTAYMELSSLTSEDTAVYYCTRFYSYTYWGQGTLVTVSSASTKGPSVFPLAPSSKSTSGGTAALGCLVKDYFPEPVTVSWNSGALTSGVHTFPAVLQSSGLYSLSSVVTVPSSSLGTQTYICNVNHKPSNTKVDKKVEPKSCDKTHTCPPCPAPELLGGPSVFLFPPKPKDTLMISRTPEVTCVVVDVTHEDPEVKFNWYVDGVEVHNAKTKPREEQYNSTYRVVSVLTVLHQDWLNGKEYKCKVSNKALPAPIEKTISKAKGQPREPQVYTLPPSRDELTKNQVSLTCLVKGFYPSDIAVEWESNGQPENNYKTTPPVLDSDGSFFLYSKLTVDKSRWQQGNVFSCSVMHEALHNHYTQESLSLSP
light: DIVMTQSPLSLPVTPGEPASISCQASESLVHSNRNTYLHWYLQKPGQSPQLLIYKVSNRFSGVPDRFSGSGSGTDFTLKISRVEAEDVGVYYCSQNTHVPPTFGQGTKVEIERTVAAPSVFIFPPSDEQLKSGTASVVCLLNNFYPREAKVQWKVDNALQSGNSQESVTEQDSKDSTYSLSSTLTLSKADYEKHKVYACEVTHQGLSSPVTKSFNRGEC
notes: Anti-glypican-3 IgG1; mutation in both H chains; also called S267T homodimerized antibody
B2: GpH7-B3 variant S298_08L/GpL16-k0 (Ho Ab) (antibody, human IgG1, kappa)
heavy: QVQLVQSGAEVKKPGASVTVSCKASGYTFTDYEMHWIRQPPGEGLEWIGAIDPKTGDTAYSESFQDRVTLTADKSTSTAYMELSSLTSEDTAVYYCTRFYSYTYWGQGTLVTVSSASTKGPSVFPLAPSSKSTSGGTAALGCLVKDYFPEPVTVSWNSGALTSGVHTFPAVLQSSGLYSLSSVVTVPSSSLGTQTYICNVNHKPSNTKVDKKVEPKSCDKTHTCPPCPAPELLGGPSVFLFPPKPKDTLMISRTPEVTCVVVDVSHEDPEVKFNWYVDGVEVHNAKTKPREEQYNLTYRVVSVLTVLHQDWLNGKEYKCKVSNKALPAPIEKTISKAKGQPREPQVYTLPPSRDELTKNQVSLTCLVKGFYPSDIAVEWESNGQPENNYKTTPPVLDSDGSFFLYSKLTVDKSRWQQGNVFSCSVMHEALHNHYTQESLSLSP
light: B1 light
notes: Anti-glypican-3 IgG1; mutation in both H chains; also called S298L homodimerized antibody
B3: GpH7-B3 variant S239_18N/GpL16-k0 (Ho Ab) (antibody, human IgG1, kappa)
heavy: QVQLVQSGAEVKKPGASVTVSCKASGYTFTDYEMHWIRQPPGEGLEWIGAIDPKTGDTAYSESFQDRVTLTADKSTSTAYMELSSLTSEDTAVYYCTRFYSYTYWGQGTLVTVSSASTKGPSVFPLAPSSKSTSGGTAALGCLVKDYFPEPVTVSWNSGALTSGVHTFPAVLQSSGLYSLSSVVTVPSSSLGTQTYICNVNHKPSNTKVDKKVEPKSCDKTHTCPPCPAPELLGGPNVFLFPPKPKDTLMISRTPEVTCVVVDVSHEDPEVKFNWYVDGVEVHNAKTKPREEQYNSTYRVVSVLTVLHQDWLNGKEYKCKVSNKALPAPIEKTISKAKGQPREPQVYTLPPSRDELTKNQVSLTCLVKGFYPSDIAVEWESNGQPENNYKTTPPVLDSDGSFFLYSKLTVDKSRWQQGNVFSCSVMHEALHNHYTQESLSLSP
light: B1 light
notes: Anti-glypican-3 IgG1; mutation in both H chains; also called S239N homodimerized antibody
B4: GpH7-B3 variant S337_10E/GpL16-k0 (Ho Ab) (antibody, human IgG1, kappa)
heavy: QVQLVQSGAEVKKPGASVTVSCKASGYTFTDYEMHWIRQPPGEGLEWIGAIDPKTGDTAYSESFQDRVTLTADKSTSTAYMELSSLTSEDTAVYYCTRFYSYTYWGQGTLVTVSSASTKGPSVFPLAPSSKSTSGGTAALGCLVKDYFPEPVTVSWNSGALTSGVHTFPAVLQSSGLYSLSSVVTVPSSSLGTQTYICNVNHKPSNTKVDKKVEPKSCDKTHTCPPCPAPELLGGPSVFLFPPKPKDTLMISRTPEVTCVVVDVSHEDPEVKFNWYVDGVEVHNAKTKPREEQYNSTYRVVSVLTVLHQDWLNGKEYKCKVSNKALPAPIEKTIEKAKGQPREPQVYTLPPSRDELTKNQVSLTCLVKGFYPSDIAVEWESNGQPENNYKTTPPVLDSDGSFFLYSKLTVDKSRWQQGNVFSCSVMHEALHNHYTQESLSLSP
light: B1 light
notes: Anti-glypican-3 IgG1; mutation in both H chains; also called S337E homodimerized antibody
B5: GpH7-A5/GpH7-B3 variant P238_08L/GpL16-k0 (He Ab) (antibody, human IgG1, kappa)
heavy 1: not shown
heavy 2: not shown
light: B1 light
notes: Anti-glypican-3 IgG1; mutation only in the GpH7-B3-derived H chain; also called P238L heterodimerized antibody
B6: GpH7-B3 variant S239_08L/GpL16-k0 (Ho Ab) (antibody, human IgG1, kappa)
heavy: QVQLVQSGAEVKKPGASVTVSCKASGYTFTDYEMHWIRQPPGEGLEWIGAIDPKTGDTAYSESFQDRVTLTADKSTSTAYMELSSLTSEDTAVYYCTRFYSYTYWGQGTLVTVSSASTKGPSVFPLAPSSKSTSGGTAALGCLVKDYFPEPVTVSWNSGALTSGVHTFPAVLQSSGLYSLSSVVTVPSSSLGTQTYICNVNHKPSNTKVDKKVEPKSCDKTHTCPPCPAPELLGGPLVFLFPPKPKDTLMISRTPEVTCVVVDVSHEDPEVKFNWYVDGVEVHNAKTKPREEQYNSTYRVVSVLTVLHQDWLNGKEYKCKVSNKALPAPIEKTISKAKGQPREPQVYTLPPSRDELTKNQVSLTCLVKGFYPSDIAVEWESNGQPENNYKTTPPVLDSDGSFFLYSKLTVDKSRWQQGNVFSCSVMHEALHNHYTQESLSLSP
light: B1 light
notes: Anti-glypican-3 IgG1; mutation in both H chains; also called S239L homodimerized antibody
B7: GpH7-B3 variant S337_09D/GpL16-k0 (Ho Ab) (antibody, human IgG1, kappa)
heavy: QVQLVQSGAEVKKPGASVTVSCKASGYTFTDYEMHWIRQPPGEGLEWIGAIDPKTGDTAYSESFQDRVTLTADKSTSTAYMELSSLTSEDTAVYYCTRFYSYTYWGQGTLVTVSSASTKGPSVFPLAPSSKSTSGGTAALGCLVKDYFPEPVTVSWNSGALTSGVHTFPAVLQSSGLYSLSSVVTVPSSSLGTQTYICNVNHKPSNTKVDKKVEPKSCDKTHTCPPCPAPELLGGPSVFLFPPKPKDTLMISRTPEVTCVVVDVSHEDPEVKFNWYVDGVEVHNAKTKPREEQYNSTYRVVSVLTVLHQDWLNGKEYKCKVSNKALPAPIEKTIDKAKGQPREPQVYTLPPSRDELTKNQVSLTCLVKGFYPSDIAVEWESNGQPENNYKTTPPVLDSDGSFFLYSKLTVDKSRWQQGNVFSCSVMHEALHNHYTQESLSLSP
light: B1 light
notes: Anti-glypican-3 IgG1; mutation in both H chains; also called S337D homodimerized antibody
B8: GpH7-B3 variant T335_08L/GpL16-k0 (Ho Ab) (antibody, human IgG1, kappa)
heavy: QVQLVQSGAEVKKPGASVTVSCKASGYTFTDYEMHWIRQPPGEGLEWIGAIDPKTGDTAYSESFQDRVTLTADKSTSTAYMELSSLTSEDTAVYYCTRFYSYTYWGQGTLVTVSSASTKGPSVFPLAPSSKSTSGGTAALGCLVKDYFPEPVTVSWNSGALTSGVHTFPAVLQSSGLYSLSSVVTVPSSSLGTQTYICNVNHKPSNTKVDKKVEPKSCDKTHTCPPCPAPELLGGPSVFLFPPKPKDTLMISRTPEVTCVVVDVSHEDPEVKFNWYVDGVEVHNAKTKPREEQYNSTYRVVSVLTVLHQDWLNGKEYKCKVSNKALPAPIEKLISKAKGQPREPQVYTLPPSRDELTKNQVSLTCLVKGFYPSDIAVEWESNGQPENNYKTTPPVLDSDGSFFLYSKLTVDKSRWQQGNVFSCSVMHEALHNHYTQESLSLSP
light: B1 light
notes: Anti-glypican-3 IgG1; mutation in both H chains; also called T335L homodimerized antibody
B9: GpH7-B3 variant S267_09D/GpL16-k0 (Ho Ab) (antibody, human IgG1, kappa)
heavy: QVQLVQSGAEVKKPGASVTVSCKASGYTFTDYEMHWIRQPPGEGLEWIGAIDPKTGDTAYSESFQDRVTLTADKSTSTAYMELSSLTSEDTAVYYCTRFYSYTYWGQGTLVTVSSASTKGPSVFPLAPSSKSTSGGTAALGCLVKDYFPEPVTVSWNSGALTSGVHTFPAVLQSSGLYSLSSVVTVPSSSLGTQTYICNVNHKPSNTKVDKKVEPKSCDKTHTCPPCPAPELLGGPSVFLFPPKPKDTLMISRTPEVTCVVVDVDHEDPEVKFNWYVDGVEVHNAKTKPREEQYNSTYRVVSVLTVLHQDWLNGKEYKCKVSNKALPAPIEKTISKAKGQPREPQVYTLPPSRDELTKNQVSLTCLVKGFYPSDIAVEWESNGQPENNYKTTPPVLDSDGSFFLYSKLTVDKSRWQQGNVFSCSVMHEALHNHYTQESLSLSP
light: B1 light
notes: Anti-glypican-3 IgG1; mutation in both H chains; also called S267D homodimerized antibody
B10: GpH7-A5/GpH7-B3 variant S267_02A/GpL16-k0 (He Ab) (antibody, human IgG1, kappa)
heavy 1: not shown
heavy 2: not shown
light: B1 light
notes: Anti-glypican-3 IgG1; mutation only in the GpH7-B3-derived H chain; also called S267A heterodimerized antibody
B11: GpH7-A5/GpH7-B3 variant S337_09D/GpL16-k0 (He Ab) (antibody, human IgG1, kappa)
heavy 1: not shown
heavy 2: not shown
light: B1 light
notes: Anti-glypican-3 IgG1; mutation only in the GpH7-B3-derived H chain; also called S337D heterodimerized antibody
B12: GpH7-A5/GpH7-B3 variant T335_04F/GpL16-k0 (He Ab) (antibody, human IgG1, kappa)
heavy 1: not shown
heavy 2: not shown
light: B1 light
notes: Anti-glypican-3 IgG1; mutation only in the GpH7-B3-derived H chain; also called T335F heterodimerized antibody
B13: GpH7-A5/GpH7-B3 variant S298_08L/GpL16-k0 (He Ab) (antibody, human IgG1, kappa)
heavy 1: not shown
heavy 2: not shown
light: B1 light
notes: Anti-glypican-3 IgG1; mutation only in the GpH7-B3-derived H chain; also called S298L heterodimerized antibody
B14: GpH7-A5/GpH7-B3 variant L328_15Y/GpL16-k0 (He Ab) (antibody, human IgG1, kappa)
heavy 1: not shown
heavy 2: not shown
light: B1 light
notes: Anti-glypican-3 IgG1; mutation only in the GpH7-B3-derived H chain; also called L328Y heterodimerized antibody
B15: GpH7-A5/GpH7-B3 variant S239_08L/GpL16-k0 (He Ab) (antibody, human IgG1, kappa)
heavy 1: not shown
heavy 2: not shown
light: B1 light
notes: Anti-glypican-3 IgG1; mutation only in the GpH7-B3-derived H chain; also called S239L heterodimerized antibody
B16: GpH7-A5/GpH7-B3 variant L328_07I/GpL16-k0 (He Ab) (antibody, human IgG1, kappa)
heavy 1: not shown
heavy 2: not shown
light: B1 light
notes: Anti-glypican-3 IgG1; mutation only in the GpH7-B3-derived H chain; also called L328I heterodimerized antibody
B17: GpH7-A5/GpH7-B3 variant P271_08L/GpL16-k0 (He Ab) (antibody, human IgG1, kappa)
heavy 1: not shown
heavy 2: not shown
light: B1 light
notes: Anti-glypican-3 IgG1; mutation only in the GpH7-B3-derived H chain; also called P271L heterodimerized antibody
B18: GpH7-A5/GpH7-B3 variant S267_14T/GpL16-k0 (He Ab) (antibody, human IgG1, kappa)
heavy 1: not shown
heavy 2: not shown
light: B1 light
notes: Anti-glypican-3 IgG1; mutation only in the GpH7-B3-derived H chain; also called S267T heterodimerized antibody
B19: GpH7-B3 variant Y300_19Q/GpL16-k0 (Ho Ab) (antibody, human IgG1, kappa)
heavy: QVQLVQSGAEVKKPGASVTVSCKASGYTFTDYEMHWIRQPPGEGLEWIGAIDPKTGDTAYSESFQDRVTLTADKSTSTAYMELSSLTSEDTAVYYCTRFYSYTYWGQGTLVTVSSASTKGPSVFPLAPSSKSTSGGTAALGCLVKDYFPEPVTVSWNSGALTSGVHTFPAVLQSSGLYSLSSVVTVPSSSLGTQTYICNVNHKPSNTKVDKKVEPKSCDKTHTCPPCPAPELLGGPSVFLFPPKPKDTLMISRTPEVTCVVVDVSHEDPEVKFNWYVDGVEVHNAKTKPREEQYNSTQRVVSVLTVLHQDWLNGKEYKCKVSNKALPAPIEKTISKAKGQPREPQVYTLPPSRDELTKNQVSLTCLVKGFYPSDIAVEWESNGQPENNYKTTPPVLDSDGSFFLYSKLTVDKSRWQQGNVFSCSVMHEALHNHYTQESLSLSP
light: B1 light
notes: Anti-glypican-3 IgG1; mutation in both H chains; also called Y300Q homodimerized antibody
B20: GpH7-B3 variant S239_09D/GpL16-k0 (Ho Ab) (antibody, human IgG1, kappa)
heavy: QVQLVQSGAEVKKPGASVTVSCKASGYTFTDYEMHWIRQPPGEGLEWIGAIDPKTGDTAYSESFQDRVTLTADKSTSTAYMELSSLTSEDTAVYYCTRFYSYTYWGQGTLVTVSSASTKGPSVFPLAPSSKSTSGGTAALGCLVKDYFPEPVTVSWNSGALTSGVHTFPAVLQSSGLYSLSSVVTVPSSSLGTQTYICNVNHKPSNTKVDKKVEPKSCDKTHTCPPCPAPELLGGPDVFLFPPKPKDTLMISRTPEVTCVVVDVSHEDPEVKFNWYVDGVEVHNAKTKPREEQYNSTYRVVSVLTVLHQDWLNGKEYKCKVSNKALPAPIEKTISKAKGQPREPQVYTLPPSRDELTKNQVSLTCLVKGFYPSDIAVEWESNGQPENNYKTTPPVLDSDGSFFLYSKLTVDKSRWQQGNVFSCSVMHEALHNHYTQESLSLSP
light: B1 light
notes: Anti-glypican-3 IgG1; mutation in both H chains; also called S239D homodimerized antibody
B21: GpH7-B3 variant S267_07I/GpL16-k0 (Ho Ab) (antibody, human IgG1, kappa)
heavy: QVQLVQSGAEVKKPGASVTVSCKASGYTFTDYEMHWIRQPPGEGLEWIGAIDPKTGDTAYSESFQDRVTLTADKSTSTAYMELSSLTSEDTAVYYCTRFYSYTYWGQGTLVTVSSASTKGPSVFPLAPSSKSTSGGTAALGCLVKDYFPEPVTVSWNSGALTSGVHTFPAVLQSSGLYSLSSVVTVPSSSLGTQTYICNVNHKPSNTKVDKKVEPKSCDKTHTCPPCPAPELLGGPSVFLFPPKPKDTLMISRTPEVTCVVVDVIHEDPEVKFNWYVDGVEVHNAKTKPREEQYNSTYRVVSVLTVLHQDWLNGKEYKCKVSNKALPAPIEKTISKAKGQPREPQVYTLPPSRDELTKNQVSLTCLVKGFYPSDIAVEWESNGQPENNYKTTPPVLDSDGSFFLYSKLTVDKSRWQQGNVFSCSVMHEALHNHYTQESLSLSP
light: B1 light
notes: Anti-glypican-3 IgG1; mutation in both H chains; also called S267I homodimerized antibody
B22: GpH7-A5/GpH7-B3 variant K334_19Q/GpL16-k0 (He Ab) (antibody, human IgG1, kappa)
heavy 1: not shown
heavy 2: not shown
light: B1 light
notes: Anti-glypican-3 IgG1; mutation only in the GpH7-B3-derived H chain; also called K334Q heterodimerized antibody
B23: GpH7-A5/GpH7-B3 variant Y300_19Q/GpL16-k0 (He Ab) (antibody, human IgG1, kappa)
heavy 1: not shown
heavy 2: not shown
light: B1 light
notes: Anti-glypican-3 IgG1; mutation only in the GpH7-B3-derived H chain; also called Y300Q heterodimerized antibody
B24: GpH7-A5/GpH7-B3 variant S267_10E/GpL16-k0 (He Ab) (antibody, human IgG1, kappa)
heavy 1: not shown
heavy 2: not shown
light: B1 light
notes: Anti-glypican-3 IgG1; mutation only in the GpH7-B3-derived H chain; also called S267E heterodimerized antibody
B25: GpH7-B3 variant T335_09D/GpL16-k0 (Ho Ab) (antibody, human IgG1, kappa)
heavy: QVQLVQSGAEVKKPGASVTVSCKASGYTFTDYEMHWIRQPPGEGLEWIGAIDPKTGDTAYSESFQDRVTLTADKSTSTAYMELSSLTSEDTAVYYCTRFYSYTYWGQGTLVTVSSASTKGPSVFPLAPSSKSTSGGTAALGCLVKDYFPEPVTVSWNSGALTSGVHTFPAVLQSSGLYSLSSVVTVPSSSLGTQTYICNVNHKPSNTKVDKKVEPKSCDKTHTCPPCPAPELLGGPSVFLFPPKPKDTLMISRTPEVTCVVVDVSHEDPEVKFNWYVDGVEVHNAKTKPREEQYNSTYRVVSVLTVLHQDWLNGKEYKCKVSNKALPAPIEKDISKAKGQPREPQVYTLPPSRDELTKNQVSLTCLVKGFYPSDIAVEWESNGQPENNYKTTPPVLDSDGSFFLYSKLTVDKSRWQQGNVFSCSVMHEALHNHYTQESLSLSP
light: B1 light
notes: Anti-glypican-3 IgG1; mutation in both H chains; also called T335D homodimerized antibody
B26: GpH7-A5/GpH7-B3 variant K334_15Y/GpL16-k0 (He Ab) (antibody, human IgG1, kappa)
heavy 1: not shown
heavy 2: not shown
light: B1 light
notes: Anti-glypican-3 IgG1; mutation only in the GpH7-B3-derived H chain; also called K334Y heterodimerized antibody
B27: GpH7-A5/GpH7-B3 variant L328_19Q/GpL16-k0 (He Ab) (antibody, human IgG1, kappa)
heavy 1: not shown
heavy 2: not shown
light: B1 light
notes: Anti-glypican-3 IgG1; mutation only in the GpH7-B3-derived H chain; also called L328Q heterodimerized antibody
B28: GpH7-B3 variant S267_08L/GpL16-k0 (Ho Ab) (antibody, human IgG1, kappa)
heavy: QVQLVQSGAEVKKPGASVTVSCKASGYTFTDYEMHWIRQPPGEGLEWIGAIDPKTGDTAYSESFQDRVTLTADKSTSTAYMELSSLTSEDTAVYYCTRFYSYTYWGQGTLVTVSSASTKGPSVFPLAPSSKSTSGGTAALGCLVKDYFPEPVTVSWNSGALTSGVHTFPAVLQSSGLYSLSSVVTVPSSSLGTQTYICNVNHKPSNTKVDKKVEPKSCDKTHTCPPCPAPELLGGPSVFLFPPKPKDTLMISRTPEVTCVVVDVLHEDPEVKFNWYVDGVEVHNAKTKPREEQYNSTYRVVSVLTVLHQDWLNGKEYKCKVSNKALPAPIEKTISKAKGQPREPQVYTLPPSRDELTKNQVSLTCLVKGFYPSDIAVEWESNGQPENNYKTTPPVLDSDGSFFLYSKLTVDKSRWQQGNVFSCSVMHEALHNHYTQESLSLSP
light: B1 light
notes: Anti-glypican-3 IgG1; mutation in both H chains; also called S267L homodimerized antibody

Biological target: T1, human FcγRIIb extracellular domain with …
Experiment: SPR (Biacore T100), antibody captured on antigen peptide chip, FcγRIIb as analyte; relative binding
Protocol: Analysis of interaction between objective antibody and the FcγR was carried out using Biacore T100 (GE Healthcare). HBS-EP+ (GE Healthcare) was used as the running buffer, and the measurement temperature was set to 25° C. Chips produced by immobilizing the antigen peptide by the amine coupling method to a Series S Sencor Chip CM5 (GE Healthcare), or alternatively, chips produced by allowing preliminarily biotinylated antigen peptides to interact with and immobilize onto a Series S Sensor Chip SA (certified) (GE Healthcare) were used. Antibodies of interest were captured onto an antigen peptide-immobilized chip, and allowed to interact to each FcγR diluted with running buffer. To regenerate and repeatedly use the chip, the antibodies captured on the chip were washed off by reacting 10 mM glycine-HCl, pH 1.5.

Binder	Ho/Con_2b	He/Con_2b
B1	106 % of control GpH7-B3/GpL16-k0 (=100)	
B2	115 % of control GpH7-B3/GpL16-k0 (=100)	
B3	125 % of control GpH7-B3/GpL16-k0 (=100)	
B4	109 % of control GpH7-B3/GpL16-k0 (=100)	
B5		204 % of control GpH7-A5/GpH7-B3/GpL16-k0 (=100)
B6	142 % of control GpH7-B3/GpL16-k0 (=100)	
B7	116 % of control GpH7-B3/GpL16-k0 (=100)	
B8	106 % of control GpH7-B3/GpL16-k0 (=100)	
B9	327 % of control GpH7-B3/GpL16-k0 (=100)	
B10		243 % of control GpH7-A5/GpH7-B3/GpL16-k0 (=100)
B11		114 % of control GpH7-A5/GpH7-B3/GpL16-k0 (=100)
B12		103 % of control GpH7-A5/GpH7-B3/GpL16-k0 (=100)
B13		108 % of control GpH7-A5/GpH7-B3/GpL16-k0 (=100)
B14		193 % of control GpH7-A5/GpH7-B3/GpL16-k0 (=100)
B15		140 % of control GpH7-A5/GpH7-B3/GpL16-k0 (=100)
B16		160 % of control GpH7-A5/GpH7-B3/GpL16-k0 (=100)
B17		103 % of control GpH7-A5/GpH7-B3/GpL16-k0 (=100)
B18		104 % of control GpH7-A5/GpH7-B3/GpL16-k0 (=100)
B19	124 % of control GpH7-B3/GpL16-k0 (=100)	
B20	224 % of control GpH7-B3/GpL16-k0 (=100)	
B21	213 % of control GpH7-B3/GpL16-k0 (=100)	
B22		109 % of control GpH7-A5/GpH7-B3/GpL16-k0 (=100)
B23		108 % of control GpH7-A5/GpH7-B3/GpL16-k0 (=100)
B24		379 % of control GpH7-A5/GpH7-B3/GpL16-k0 (=100)
B25	116 % of control GpH7-B3/GpL16-k0 (=100)	
B26		109 % of control GpH7-A5/GpH7-B3/GpL16-k0 (=100)
B27		105 % of control GpH7-A5/GpH7-B3/GpL16-k0 (=100)
B28	109 % of control GpH7-B3/GpL16-k0 (=100)	

— patent US20150344570A1 (published 2015)
